Results: US20250282890A1

Experiments:
[1] = target: human PSMA displayed on the surface of LNCaP cells (human) (UniProt Q04609); assay: flow cytometry on LNCaP cells, Fab titrated
[2] = target: recombinant human PSMA (prostate-specific membrane antigen), biotin-tagged (human) (UniProt Q04609); assay: ELISA on plates coated with recombinant PSMA (biotin-tagged, captured on streptavidin), two-fold dilution series, goat anti-human-HRP and TMB
[3] = target: human PSMA displayed on the surface of LNCaP cells (human) (UniProt Q04609); assay: flow cytometry titration on cells (three-fold dilution series, anti-Strep antibody and goat anti-mouse Alexa Fluor 647); the sheet does not name the cell line, the text gives the curves as binding to cell-surface PSMA (LNCaP)
[4] = target: recombinant human PSMA (prostate-specific membrane antigen), biotin-tagged (human) (UniProt Q04609); assay: native ELISA, streptavidin-captured biotin-tagged PSMA, Fab titrated
[5] = target: recombinant human PSMA (prostate-specific membrane antigen), biotin-tagged (human) (UniProt Q04609); assay: native ELISA, streptavidin-captured biotin-tagged PSMA, IgG1 titrated
[6] = target: recombinant human PSMA (prostate-specific membrane antigen), biotin-tagged (human) (UniProt Q04609); assay: ELISA on plates coated with recombinant PSMA, two-fold dilution series, goat anti-human-HRP and TMB
[7] = target: human PSMA displayed on the surface of LNCaP cells (human) (UniProt Q04609); assay: flow cytometry on LNCaP cells, IgG1 titrated

human PSMA displayed on the surface of LNCaP cells (human), sequence (Q04609 whole entry): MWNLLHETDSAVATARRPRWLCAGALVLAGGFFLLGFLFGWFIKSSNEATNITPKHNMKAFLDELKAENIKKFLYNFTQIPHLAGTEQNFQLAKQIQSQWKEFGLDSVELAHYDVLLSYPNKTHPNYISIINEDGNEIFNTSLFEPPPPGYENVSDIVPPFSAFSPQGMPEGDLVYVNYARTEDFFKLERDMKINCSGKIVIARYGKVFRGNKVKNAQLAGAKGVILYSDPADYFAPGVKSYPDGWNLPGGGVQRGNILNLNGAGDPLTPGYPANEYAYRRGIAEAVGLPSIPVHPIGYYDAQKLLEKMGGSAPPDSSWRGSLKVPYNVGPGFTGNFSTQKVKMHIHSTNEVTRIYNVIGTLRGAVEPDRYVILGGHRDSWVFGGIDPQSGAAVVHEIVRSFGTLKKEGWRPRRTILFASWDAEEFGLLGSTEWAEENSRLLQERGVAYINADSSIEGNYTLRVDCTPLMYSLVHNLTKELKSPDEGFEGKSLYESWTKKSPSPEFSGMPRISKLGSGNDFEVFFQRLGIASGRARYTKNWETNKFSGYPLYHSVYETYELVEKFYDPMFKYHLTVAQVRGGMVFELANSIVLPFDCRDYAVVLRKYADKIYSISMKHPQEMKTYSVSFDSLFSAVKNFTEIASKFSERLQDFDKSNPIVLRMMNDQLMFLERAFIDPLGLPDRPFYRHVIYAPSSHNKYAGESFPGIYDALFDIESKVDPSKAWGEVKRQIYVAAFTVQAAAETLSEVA
recombinant human PSMA (prostate-specific membrane antigen), biotin-tagged (human), sequence (Q04609 44-750 limits assumed): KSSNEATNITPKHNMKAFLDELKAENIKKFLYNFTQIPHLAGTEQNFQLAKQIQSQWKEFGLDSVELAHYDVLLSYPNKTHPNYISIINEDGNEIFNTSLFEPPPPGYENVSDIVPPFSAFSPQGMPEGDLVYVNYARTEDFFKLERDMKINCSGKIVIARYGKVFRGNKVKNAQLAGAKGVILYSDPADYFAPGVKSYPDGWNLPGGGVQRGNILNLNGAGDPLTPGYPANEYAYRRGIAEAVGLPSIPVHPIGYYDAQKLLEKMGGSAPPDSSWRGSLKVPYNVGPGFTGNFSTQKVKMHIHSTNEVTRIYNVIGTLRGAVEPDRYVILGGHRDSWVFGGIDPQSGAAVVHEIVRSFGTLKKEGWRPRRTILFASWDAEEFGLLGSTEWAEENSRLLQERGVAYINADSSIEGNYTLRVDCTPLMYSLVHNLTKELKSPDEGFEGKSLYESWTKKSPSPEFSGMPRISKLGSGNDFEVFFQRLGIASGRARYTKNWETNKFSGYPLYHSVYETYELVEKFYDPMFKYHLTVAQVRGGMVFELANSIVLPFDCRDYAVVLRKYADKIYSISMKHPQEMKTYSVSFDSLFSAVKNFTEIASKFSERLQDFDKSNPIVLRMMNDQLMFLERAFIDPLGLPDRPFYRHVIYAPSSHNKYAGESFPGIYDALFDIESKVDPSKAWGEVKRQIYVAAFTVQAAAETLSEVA

| Kd [1] [nM] | EC50 (read off the curve) [2] [nM] | EC50 (read off the curve) [3] [nM] | Kd [4] [nM] | Kd [5] [nM] | EC50 (read off the curve) [6] [nM] | Kd [7] [nM] | Substance |
| --- | --- | --- | --- | --- | --- | --- | --- |
| 2.8 | 1 | 3 | 1.8 | – | – | – | Chimeric Fab |
| – | – | – | – | 0.28 | 0.3 | 0.35 | Chimeric 5D3 IgG1 (antibody) |
